Test results taken from US20140011734A1 (Sanofi, published 2014).
Starred links: 1 amine or outer side, 2 acyl side, 3 side chain; linkers in the order of their positions; H or OH if unused. Non-standard residues stand in square brackets, D forms with d. NH(CH2)9CO = O=C(CCCCCCCCCN[*:1])[*:2]; tBuAla = CC(C)(C)C[C@H](N)C(=O)O; Cha = N[C@@H](CC1CCCCC1)C(=O)O; Chg = N[C@H](C(=O)O)C1CCCCC1; Ac6c = NC1(C(=O)O)CCCCC1; Orn = NCCC[C@H](N)C(=O)O; Dab = NCC[C@H](N)C(=O)O; Nva = CCC[C@H](N)C(=O)O; Dap = NC[C@H](N)C(=O)O; Ac3c = NC1(C(=O)O)CC1; Aib = CC(C)(N)C(=O)O; Ahp = NCCCCCCC(=O)O; Ava = NCCCCC(=O)O; GABA = NCCCC(=O)O

These binders were tested against T1, blood platelet receptor glycoprotein Ib-IX-V complex (GPIb) (human, UniProt P07359 17-652; P13224 26-206; P14770 17-177; P40197 17-560) (assay: inhibition of static adhesion of human platelets to coated vWF-A1; grade B = IC50 between 1 µM and 10 µM).
T1 construct: whole, on cells; also called GPIb complex; GPIb receptor
T1 sequence (P07359 17-652, chain 1 of 4): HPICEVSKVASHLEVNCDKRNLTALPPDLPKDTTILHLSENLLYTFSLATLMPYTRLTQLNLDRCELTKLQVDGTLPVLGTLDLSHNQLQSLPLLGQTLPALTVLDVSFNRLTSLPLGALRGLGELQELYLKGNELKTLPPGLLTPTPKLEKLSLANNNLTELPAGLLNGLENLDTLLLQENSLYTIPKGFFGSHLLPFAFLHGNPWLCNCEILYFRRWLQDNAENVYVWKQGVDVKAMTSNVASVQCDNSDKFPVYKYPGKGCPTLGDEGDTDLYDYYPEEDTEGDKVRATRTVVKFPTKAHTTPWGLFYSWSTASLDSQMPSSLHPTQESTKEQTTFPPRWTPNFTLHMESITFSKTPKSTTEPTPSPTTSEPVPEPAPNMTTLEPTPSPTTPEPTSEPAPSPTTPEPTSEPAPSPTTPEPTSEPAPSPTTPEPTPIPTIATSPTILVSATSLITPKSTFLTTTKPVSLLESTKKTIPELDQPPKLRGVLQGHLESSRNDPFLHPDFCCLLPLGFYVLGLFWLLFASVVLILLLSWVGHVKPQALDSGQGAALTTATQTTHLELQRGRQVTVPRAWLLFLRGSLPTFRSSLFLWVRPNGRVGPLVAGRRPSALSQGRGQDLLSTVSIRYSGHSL
T1 sequence (P13224 26-206, chain 2 of 4): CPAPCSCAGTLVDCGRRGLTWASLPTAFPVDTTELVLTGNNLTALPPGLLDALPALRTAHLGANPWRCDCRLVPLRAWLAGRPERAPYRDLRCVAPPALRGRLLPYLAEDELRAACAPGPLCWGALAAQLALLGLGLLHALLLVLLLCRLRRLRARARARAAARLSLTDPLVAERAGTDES
T1 sequence (P14770 17-177, chain 3 of 4): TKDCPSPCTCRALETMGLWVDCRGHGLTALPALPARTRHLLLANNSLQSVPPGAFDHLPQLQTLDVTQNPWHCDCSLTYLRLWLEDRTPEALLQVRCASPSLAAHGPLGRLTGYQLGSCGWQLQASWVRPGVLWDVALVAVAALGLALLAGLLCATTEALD
T1 sequence (P40197 17-560, chain 4 of 4): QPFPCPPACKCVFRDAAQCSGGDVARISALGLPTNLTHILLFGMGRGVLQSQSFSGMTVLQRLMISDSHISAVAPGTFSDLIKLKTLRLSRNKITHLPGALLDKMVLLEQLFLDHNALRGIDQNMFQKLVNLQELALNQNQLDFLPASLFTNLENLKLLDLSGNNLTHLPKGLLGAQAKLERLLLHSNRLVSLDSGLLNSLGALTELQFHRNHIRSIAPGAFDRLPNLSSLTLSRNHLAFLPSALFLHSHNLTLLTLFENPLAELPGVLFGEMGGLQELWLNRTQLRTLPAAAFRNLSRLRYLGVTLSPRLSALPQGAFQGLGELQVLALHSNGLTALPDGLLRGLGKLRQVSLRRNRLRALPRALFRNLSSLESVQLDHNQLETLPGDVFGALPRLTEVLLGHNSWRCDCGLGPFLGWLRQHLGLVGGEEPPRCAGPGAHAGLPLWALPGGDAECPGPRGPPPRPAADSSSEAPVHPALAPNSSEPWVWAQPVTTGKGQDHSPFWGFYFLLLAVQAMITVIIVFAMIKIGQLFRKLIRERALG
Protocol: (§1) Platelet rich plasma was carefully transferred again to fresh containers, PGE1 (0.5 μg/ml, Sigma) was added and the suspension was allowed to rest for 5 min. This was followed by another centrifugation step for 15 min at 360 g. The supernatant was discarded and the cell pellets were carefully resuspended in tyrode buffer (NaCl, 137 mM (Sigma S-3014); KCl, 2.7 mM (Sigma P-9541); NaHCO₃,12 mM (Riedel deHaen 31437); NaH₂PO₄×2H₂O, 0.36 mM (Merck 6345); MgCl₂×6 H₂O, 1 mM (Sigma M-2670); Hepes, 10 mM (Sigma H-1016); glucose, 5.6 mM (Merck 8342); BSA, 0.1% (Sigma A7906)), and PGE1 (0.25 μg/ml) was added. After 5 min of resting the suspension was spun down for 15 min at 300 g. The supernatant was discarded and the pellets were carefully resuspended in TBS buffer (Tris-HCl, 50 mM (Fluka 93371); NaCl, 120 mM (Sigma S-3014); KCl, 2.7 mM (Sigma P-9541); CaCl₂, 0.05 mM (Sigma C-3306); MgCl₂×6 H₂O, 2 mM (Sigma M-2670); BSA, 0.1% (Sigma A7906); pH 7.4). The platelet count was adjusted to 2×10⁵ cells/μl, and the suspensions from individual donors were pooled at this stage. The platelets were allowed to rest for 30 min at room temperature before calcein AM (2.5 μM per 2×10⁵ cells/pi (Molecular Probes C-3099)) was added. This was followed by 15 min incubation in the dark. Cells were diluted to 5×10⁴ cells/μl and ReoPro (3 μg/ml (Centocor B. V., Leiden, N L)) was added, followed by a 10 min incubation period in the dark before adding the platelets to the assay plates.
(§2) 96 well plates (Greiner hb, black, clear bottom, F, 655097) were coated with human recombinant vWF-A1 domain (1.5 μg/well, AA 475-706, expressed in E. coli) in Tris buffer (pH 7.4; Tris-HCl, 25 mM; NaCl, 150 mM) and incubated for 1 h at room temperature. After washing the wells 3× with TBS, blocking buffer (TBS with 5% BSA) was added followed by an incubation for 1 h. The wells were washed again 3× with TBS before 200 μl TBS were added to each well, preventing them from drying out. TBS was flicked out and serial dilutions of the test compound were added. The washed and calcein AM labeled thrombocytes were added to the wells (2.5×10⁶ cells/well). Following an adhesion period of 1.5 h in the dark the wells were washed 3× with TBS. Measurement of fluorescence per well was performed in a SpectraMax M5 reader (Molecular Devices). From the raw data % inhibition and IC₅₀ values were calculated.

Binder	IC50 [µM]
cyclo(LHNL[Ahp]TER[Chg]A) (SMILES CC(C)C[C@@H]1NC(=O)[C@H](C)NC(=O)[C@H](C2CCCCC2)NC(=O)[C@H](CCCNC(=N)N)NC(=O)[C@H](CCC(=O)O)NC(=O)[C@H]([C@@H](C)O)NC(=O)CCCCCCNC(=O)[C@H](CC(C)C)NC(=O)[C@H](CC(N)=O)NC(=O)[C@H](Cc2c[nH]cn2)NC1=O) [Cyclo[Leu-His-Asn-Leu-NH-(CH2)6-CO-Thr-Glu-Arg-Chg-Ala]]	1 to 10
cyclo([Ac6c]HNL[Ahp]TERMA) [Cyclo[Ac6-His-Asn-Leu-NH-(CH2)6-CO-Thr-Glu-Arg-Met-Ala]]	1 to 10
cyclo(LHNL[GABA][Ac3c]TERMA) (SMILES CSCC[C@@H]1NC(=O)[C@H](CCCNC(=N)N)NC(=O)[C@H](CCC(=O)O)NC(=O)[C@H]([C@@H](C)O)NC(=O)C2(CC2)NC(=O)CCCNC(=O)[C@H](CC(C)C)NC(=O)[C@H](CC(N)=O)NC(=O)[C@H](Cc2c[nH]cn2)NC(=O)[C@H](CC(C)C)NC(=O)[C@H](C)NC1=O) [Cyclo[Leu-His-Asn-Leu-NH-(CH2)3-CO-Ac3-Thr-Glu-Arg-Met-Ala]]	1 to 10
cyclo(LHNL[GABA][Aib]TERMA) (SMILES CSCC[C@@H]1NC(=O)[C@H](CCCNC(=N)N)NC(=O)[C@H](CCC(=O)O)NC(=O)[C@H]([C@@H](C)O)NC(=O)C(C)(C)NC(=O)CCCNC(=O)[C@H](CC(C)C)NC(=O)[C@H](CC(N)=O)NC(=O)[C@H](Cc2c[nH]cn2)NC(=O)[C@H](CC(C)C)NC(=O)[C@H](C)NC1=O) [Cyclo[Leu-His-Asn-Leu-NH-(CH2)3-CO-Aib-Thr-Glu-Arg-Met-Ala]]	1 to 10
cyclo(LHNLG[Ava]TERMA) (SMILES CSCC[C@@H]1NC(=O)[C@H](CCCNC(=N)N)NC(=O)[C@H](CCC(=O)O)NC(=O)[C@H]([C@@H](C)O)NC(=O)CCCCNC(=O)CNC(=O)[C@H](CC(C)C)NC(=O)[C@H](CC(N)=O)NC(=O)[C@H](Cc2c[nH]cn2)NC(=O)[C@H](CC(C)C)NC(=O)[C@H](C)NC1=O) [Cyclo[Leu-His-Asn-Leu-Gly-NH-(CH2)4-CO-Thr-Glu-Arg-Met-Ala]]	1 to 10

More lines, now with the values ahead:

IC50 [µM]	Binder
1 to 10	cyclo(LHNL[NH(CH2)9CO]TERMA) (SMILES CSCC[C@@H]1NC(=O)[C@H](CCCNC(=N)N)NC(=O)[C@H](CCC(=O)O)NC(=O)[C@H]([C@@H](C)O)NC(=O)CCCCCCCCCNC(=O)[C@H](CC(C)C)NC(=O)[C@H](CC(N)=O)NC(=O)[C@H](Cc2c[nH]cn2)NC(=O)[C@H](CC(C)C)NC(=O)[C@H](C)NC1=O) [Cyclo[Leu-His-Asn-Leu-NH-(CH2)9-CO-Thr-Glu-Arg-Met-Ala]]
1 to 10	cyclo(LHNL[Dap][GABA]TERMA) (SMILES CSCC[C@@H]1NC(=O)[C@H](CCCNC(=N)N)NC(=O)[C@H](CCC(=O)O)NC(=O)[C@H]([C@@H](C)O)NC(=O)CCCNC(=O)[C@H](CN)NC(=O)[C@H](CC(C)C)NC(=O)[C@H](CC(N)=O)NC(=O)[C@H](Cc2c[nH]cn2)NC(=O)[C@H](CC(C)C)NC(=O)[C@H](C)NC1=O) [Cyclo[Leu-His-Asn-Leu-Dpr-NH-(CH2)3-CO-Thr-Glu-Arg-Met-Ala]]

What follows are binders tested against T1, blood platelet receptor glycoprotein … (assay: inhibition of static adhesion of human platelets to coated vWF-A1; grade C = IC50 lower than 1 µM).
Protocol: as §1, §2

Binder	IC50 [µM]
cyclo(LHNL[Ahp][Dab]ERMA) (SMILES CSCC[C@@H]1NC(=O)[C@H](CCCNC(=N)N)NC(=O)[C@H](CCC(=O)O)NC(=O)[C@H](CCN)NC(=O)CCCCCCNC(=O)[C@H](CC(C)C)NC(=O)[C@H](CC(N)=O)NC(=O)[C@H](Cc2c[nH]cn2)NC(=O)[C@H](CC(C)C)NC(=O)[C@H](C)NC1=O) [Cyclo[Leu-His-Asn-Leu-NH-(CH2)6-CO-Dbu-Glu-Arg-Met-Ala]]	< 1
cyclo([Nva]HNL[Ahp]TERMA) (SMILES CCC[C@@H]1NC(=O)[C@H](C)NC(=O)[C@H](CCSC)NC(=O)[C@H](CCCNC(=N)N)NC(=O)[C@H](CCC(=O)O)NC(=O)[C@H]([C@@H](C)O)NC(=O)CCCCCCNC(=O)[C@H](CC(C)C)NC(=O)[C@H](CC(N)=O)NC(=O)[C@H](Cc2c[nH]cn2)NC1=O) [Cyclo[Nva-His-Asn-Leu-NH-(CH2)6-CO-Thr-Glu-Arg-Met-Ala]]	< 1
cyclo([Cha]HNL[Ahp]TERMA) (SMILES CSCC[C@@H]1NC(=O)[C@H](CCCNC(=N)N)NC(=O)[C@H](CCC(=O)O)NC(=O)[C@H]([C@@H](C)O)NC(=O)CCCCCCNC(=O)[C@H](CC(C)C)NC(=O)[C@H](CC(N)=O)NC(=O)[C@H](Cc2c[nH]cn2)NC(=O)[C@H](CC2CCCCC2)NC(=O)[C@H](C)NC1=O) [Cyclo[Cha-His-Asn-Leu-NH-(CH2)6-CO-Thr-Glu-Arg-Met-Ala]]	< 1
cyclo(LHNL[Ahp]TER[Cha]A) (SMILES CC(C)C[C@@H]1NC(=O)[C@H](C)NC(=O)[C@H](CC2CCCCC2)NC(=O)[C@H](CCCNC(=N)N)NC(=O)[C@H](CCC(=O)O)NC(=O)[C@H]([C@@H](C)O)NC(=O)CCCCCCNC(=O)[C@H](CC(C)C)NC(=O)[C@H](CC(N)=O)NC(=O)[C@H](Cc2c[nH]cn2)NC1=O) [Cyclo[Leu-His-Asn-Leu-NH-(CH2)6-CO-Thr-Glu-Arg-Cha-Ala]]	< 1
cyclo([tBuAla]HNL[Ahp]TERMA) [Cyclo[Npg-His-Asn-Leu-NH-(CH2)6-CO-Thr-Glu-Arg-Met-Ala]]	< 1
cyclo(LHNL[Ahp]TE[Orn]MA) (SMILES CSCC[C@@H]1NC(=O)[C@H](CCCN)NC(=O)[C@H](CCC(=O)O)NC(=O)[C@H]([C@@H](C)O)NC(=O)CCCCCCNC(=O)[C@H](CC(C)C)NC(=O)[C@H](CC(N)=O)NC(=O)[C@H](Cc2c[nH]cn2)NC(=O)[C@H](CC(C)C)NC(=O)[C@H](C)NC1=O) [Cyclo[Leu-His-Asn-Leu-NH-(CH2)6-CO-Thr-Glu-Orn-Met-Ala]]	< 1
cyclo(LHNL[Ahp]TERQA) (SMILES CC(C)C[C@@H]1NC(=O)[C@H](C)NC(=O)[C@H](CCC(N)=O)NC(=O)[C@H](CCCNC(=N)N)NC(=O)[C@H](CCC(=O)O)NC(=O)[C@H]([C@@H](C)O)NC(=O)CCCCCCNC(=O)[C@H](CC(C)C)NC(=O)[C@H](CC(N)=O)NC(=O)[C@H](Cc2c[nH]cn2)NC1=O) [Cyclo[Leu-His-Asn-Leu-NH-(CH2)6-CO-Thr-Glu-Arg-Gln-Ala]]	< 1
cyclo(LHNL[Ahp]QERMA) (SMILES CSCC[C@@H]1NC(=O)[C@H](CCCNC(=N)N)NC(=O)[C@H](CCC(=O)O)NC(=O)[C@H](CCC(N)=O)NC(=O)CCCCCCNC(=O)[C@H](CC(C)C)NC(=O)[C@H](CC(N)=O)NC(=O)[C@H](Cc2c[nH]cn2)NC(=O)[C@H](CC(C)C)NC(=O)[C@H](C)NC1=O) [Cyclo[Leu-His-Asn-Leu-NH-(CH2)6-CO-Gln-Glu-Arg-Met-Ala]]	< 1

Continued, values first:

IC50 [µM]	Binder
< 1	cyclo(LHNL[Ahp]TERM[Dap]) (SMILES CSCC[C@@H]1NC(=O)[C@H](CCCNC(=N)N)NC(=O)[C@H](CCC(=O)O)NC(=O)[C@H]([C@@H](C)O)NC(=O)CCCCCCNC(=O)[C@H](CC(C)C)NC(=O)[C@H](CC(N)=O)NC(=O)[C@H](Cc2c[nH]cn2)NC(=O)[C@H](CC(C)C)NC(=O)[C@H](CN)NC1=O) [Cyclo[Leu-His-Asn-Leu-NH-(CH2)6-CO-Thr-Glu-Arg-Met-Dpr]]
< 1	cyclo(LHNL[Ahp]NERMA) (SMILES CSCC[C@@H]1NC(=O)[C@H](CCCNC(=N)N)NC(=O)[C@H](CCC(=O)O)NC(=O)[C@H](CC(N)=O)NC(=O)CCCCCCNC(=O)[C@H](CC(C)C)NC(=O)[C@H](CC(N)=O)NC(=O)[C@H](Cc2c[nH]cn2)NC(=O)[C@H](CC(C)C)NC(=O)[C@H](C)NC1=O) [Cyclo[Leu-His-Asn-Leu-NH-(CH2)6-CO-Asn-Glu-Arg-Met-Ala]]
< 1	cyclo(LHNL[Ahp]TERAA) (SMILES CC(C)C[C@@H]1NC(=O)[C@H](C)NC(=O)[C@H](C)NC(=O)[C@H](CCCNC(=N)N)NC(=O)[C@H](CCC(=O)O)NC(=O)[C@H]([C@@H](C)O)NC(=O)CCCCCCNC(=O)[C@H](CC(C)C)NC(=O)[C@H](CC(N)=O)NC(=O)[C@H](Cc2c[nH]cn2)NC1=O) [Cyclo[Leu-His-Asn-Leu-NH-(CH2)6-CO-Thr-Glu-Arg-Ala-Ala]]
< 1	cyclo(LHNL[Ahp]TERLA) (SMILES CC(C)C[C@@H]1NC(=O)[C@H](C)NC(=O)[C@H](CC(C)C)NC(=O)[C@H](CCCNC(=N)N)NC(=O)[C@H](CCC(=O)O)NC(=O)[C@H]([C@@H](C)O)NC(=O)CCCCCCNC(=O)[C@H](CC(C)C)NC(=O)[C@H](CC(N)=O)NC(=O)[C@H](Cc2c[nH]cn2)NC1=O) [Cyclo[Leu-His-Asn-Leu-NH-(CH2)6-CO-Thr-Glu-Arg-Leu-Ala]]
